This note sets out measurements from CN113501876A (WEST CHINA HOSPITAL SICHUAN UNIV, dated 2021).

In assay [1] the target is T1, 蛋白激酶p38δ (p38δ-2×Strep) (Homo sapiens (Human), UniProt O15264 1-365).
T1 construct: Expressed from pET28a-p38δ-2×Strep in E. coli BL21(DE3) and purified on MagStrep beads; The tag is placed C-terminal on the strength of the vector name only; Any further vector residues are not described; not shown: 2×Strep tag
T1 sequence: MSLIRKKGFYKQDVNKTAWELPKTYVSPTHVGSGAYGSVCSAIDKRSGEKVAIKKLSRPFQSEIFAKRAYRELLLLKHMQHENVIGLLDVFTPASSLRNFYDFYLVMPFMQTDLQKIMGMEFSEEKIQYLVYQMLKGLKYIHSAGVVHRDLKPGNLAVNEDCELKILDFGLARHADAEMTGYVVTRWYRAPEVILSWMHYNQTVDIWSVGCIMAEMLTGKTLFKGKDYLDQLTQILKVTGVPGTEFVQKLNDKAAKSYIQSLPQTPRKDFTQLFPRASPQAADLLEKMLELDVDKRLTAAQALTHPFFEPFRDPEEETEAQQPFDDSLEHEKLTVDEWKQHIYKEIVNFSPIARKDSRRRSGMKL
The experiment in a line: indirect ELISA, p38δ coated, nanobody at 0-6.4 μM, anti-FLAG detection, 4-parameter fit.

The target in assay [2] is T2, p38γ (p38γ-2×Strep) (Homo sapiens (Human), UniProt P53778 1-367).
T2 construct: Expressed from pET28a-p38γ-2×Strep in E. coli; not shown: 2×Strep tag
T2 sequence: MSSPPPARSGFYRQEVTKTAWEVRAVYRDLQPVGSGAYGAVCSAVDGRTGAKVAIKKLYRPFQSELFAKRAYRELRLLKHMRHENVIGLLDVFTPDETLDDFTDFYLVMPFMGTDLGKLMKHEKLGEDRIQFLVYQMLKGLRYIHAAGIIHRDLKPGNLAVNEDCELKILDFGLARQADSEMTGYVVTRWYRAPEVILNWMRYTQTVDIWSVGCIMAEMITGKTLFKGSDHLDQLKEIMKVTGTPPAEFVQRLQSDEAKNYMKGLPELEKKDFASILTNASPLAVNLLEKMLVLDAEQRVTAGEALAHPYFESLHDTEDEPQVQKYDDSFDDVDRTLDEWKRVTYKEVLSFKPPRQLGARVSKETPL
The experiment in a line: ELISA, p38 proteins coated on the plate, nanobody periplasmic extract, anti-FLAG detection, OD450.

B1: 纳米抗体Nb13-1 (VHH)
VHH: QVQLVESGGALVQPGGSLRLSCAASGWWGQRGWLRWYRQAPGKEREWVCGISLRRNRYSYEDSVKGRFTCSRDDARNTVYLQLNSLKPEDTAVYYCAPLSLLHDEDNHSSNYWGQGTQVTVSS
notes: Expressed from pET22b-NB-FLAG in E. coli BL21(DE3); It was used as periplasmic extract in several assays; also called 特异性结合蛋白激酶p38δ的纳米抗体; not shown: C-terminal FLAG tag fused in pET22b
As to B1, the Kd in assay [1] worked out at 1320 nM. Further, the binding result in assay [2] was “no binding”.
